Assay results as given in paper PMC2819845 (Biochemistry, 2009).

Target: the molecule itself
Assay: crystal structure

B1: phosphorylated Sts-2PGM (phospho-His366) (domain or fragment, mouse, UniProt Q3V3E1 354-624, looked up)
chain: ATISRRGILVVRHGERVDQVFGKSWLQQCTTADGKYYRPDLNFPRSLPRRSNGIKDFENDPPLSSCGIFQARLAGEALLDSGVRVTAVFASPALRCVQTAKHILEELKLEKKLKIRVEPGIFEWMKWEASKATLTFLTLEELKEANFNVDLDYRPALPRCSLMPAESYDQYVERCAVSMGQIINTCPQDMGITLIVSHSSALDSCTRPLLGLPPRECGDFAQLVRKIPSLGMCFCEENREDGKWDLVNPPVKTLTHGANSVFNWRNWISSN
modifications: phosphohistidine at 366 (on NE2; occupancy between 0.50 and 0.70, in three of the four monomers)
B1: binds.
